Experimental data as given in patent publication US20170210777A1.

Target: human IgG antibody (human)
Assay: SPR (Biacore), ligand immobilised on CM5

koff: 0.00032 s⁻¹
Substance: modified protein A (manufactured by Sino Biological Inc.)
